The supplement of paper PMC9732359
± gives the uncertainty stated by the source.

Test: protein stability index of a GFP-peptide fusion (yeast GPS) (PSI 1-4); higher = more stable; sorted into four equal gates, so the index is relative within each strain
Outline: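 The protein stability index combines read frequencies across sorting gates, each weighted by its gate number and then summed. To obtain those frequencies, a pooled yeast library of GFP fusions to tiled 17-residue yeast protein peptides, on a plasmid also expressing Cherry, was grown to mid-log phase in leucine-free medium. The cells were sorted into four equal gates by GFP/Cherry ratio before plasmid amplification by PCR and Illumina sequencing.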

| Sequence | protein stability index (doa10∆) | protein stability index (pdr5∆) | protein stability index (san1∆) | protein stability index (ubr1∆) |
| --- | --- | --- | --- | --- |
| RCLVAVIQQDKYQKALH [SRP72] | 2.46 ± 0.2 | 2.23 ± 0.07 | 1.85 ± 0.1 | 2.09 ± 0.13 |
| RSSEEINSDNQNIILRS [RPN3] | 3.03 ± 0.26 | 3.24 ± 0.19 |  | 3.2 ± 0.19 |
| VTNSMRQTLAPYAVLSQ [YJR042W/NUP85] | 2.33 ± 0.065 | 2.83 ± 0.054 | 2.53 ± 0.051 | 2.62 ± 0.048 |
| IVGLATLIVNTDVEKSD [SRP21] |  |  |  | 3.69 ± 0.26 |
| HSDRYHRVAENWRKQKG [RPL32] |  | 2.99 ± 0.2 |  | 2.6 ± 0.23 |
| EVLVTPGLEFLDDTTIP [MCD1] | 2.02 ± 0.057 | 2.98 ± 0.059 | 3.25 ± 0.037 | 3.08 ± 0.059 |
| EDDDNEQHEEKAAEGEE [QCR6] | 3.06 ± 0.083 | 2.95 ± 0.12 | 2.95 ± 0.24 | 3.2 ± 0.072 |
| PAGKQVEISLVNGAKNL [FAS1] | 2.63 ± 0.27 | 3.23 ± 0.23 |  | 2.31 ± 0.19 |
| TRTVITDWDPQFNAITG [SMC2] | 2.96 ± 0.099 | 2.99 ± 0.083 | 2.67 ± 0.1 | 2.76 ± 0.098 |
| SSTTGMSYVVRILSTLD [RPT3] | 2.31 ± 0.082 | 2.42 ± 0.084 | 2.49 ± 0.053 | 2.91 ± 0.066 |
| NEYVIKTPVFTTGGDYI [YMR129W/POM152] | 1.88 ± 0.062 | 2.07 ± 0.053 | 1.91 ± 0.075 | 1.99 ± 0.053 |
| KSFANHTEDEQIEKKKI [SIR4] | 2.96 ± 0.14 | 2.28 ± 0.087 | 2.66 ± 0.096 | 2.13 ± 0.048 |
| FHIDHTKPSDLTIKDIV [RPO21] | 2.71 ± 0.048 | 2.66 ± 0.06 | 2.56 ± 0.059 | 2.8 ± 0.035 |
| APIADDNHSGDATANAT [DSN1] | 3.15 ± 0.1 | 3.08 ± 0.071 | 3.27 ± 0.083 | 3.38 ± 0.076 |
| EVAKRLVELMFIRSTNS [FAS1] | 1.79 ± 0.067 | 2.14 ± 0.069 | 2.5 ± 0.085 | 1.49 ± 0.042 |
| RQELQMQRQQQGISGSQ [SNF2] | 2.65 ± 0.049 | 2.95 ± 0.046 | 2.94 ± 0.042 | 2.9 ± 0.041 |
| RIIREMFAYAKEHEPCI [RPT4] | 2.43 ± 0.1 | 2.65 ± 0.12 | 2.83 ± 0.11 | 2.58 ± 0.093 |
| SCLTFFQALDSEETQFK [ITC1] | 2.73 ± 0.1 | 3.49 ± 0.13 | 2.7 ± 0.11 | 3.17 ± 0.15 |
| DKEWVFAALSDSYGQGS [SSN2] | 3.18 ± 0.11 | 3.46 ± 0.1 | 3.1 ± 0.13 | 3.34 ± 0.09 |
| DSLENNEGVPSPMLSIS [FAS1] | 3.08 ± 0.077 | 2.56 ± 0.062 | 2.4 ± 0.1 | 3.29 ± 0.094 |
| QVIFEIFEISLQRKDYT [YML103C/NUP188] | 2 ± 0.053 | 2.19 ± 0.056 | 2.51 ± 0.069 | 2.84 ± 0.061 |
| LLKPFHVKVNDKKEMTI [SIR3] | 3.05 ± 0.18 | 2.58 ± 0.15 | 2.21 ± 0.14 | 2.68 ± 0.14 |
| KLVTNVVDPKTSIEKSS [YML103C/NUP188] | 2.31 ± 0.056 | 2.71 ± 0.049 | 2.52 ± 0.069 | 2.62 ± 0.051 |
| LLKGPASTVAKTAPIQE [YOR098C/NUP1] | 2.52 ± 0.1 | 2.46 ± 0.094 | 1.91 ± 0.18 | 2.87 ± 0.071 |
| QVNGNIRKVSNDRESVL [SMC3] | 3.12 ± 0.15 | 1.88 ± 0.079 | 1.92 ± 0.083 | 2.18 ± 0.056 |

| Sequence | protein stability index (doa10∆) | protein stability index (pdr5∆) | protein stability index (san1∆) | protein stability index (ubr1∆) |
| --- | --- | --- | --- | --- |
| KVATEKDFLKAVDKVIS [RPT1] | 3.23 ± 0.074 | 3.26 ± 0.094 | 3.05 ± 0.11 | 3.26 ± 0.053 |
| KNHFRKHWQERVKVHFD [RPL13A] | 1.3 ± 0.037 | 1.71 ± 0.05 | 1.47 ± 0.083 | 1.54 ± 0.038 |
| CCYFIEWKSNHKKKRSN [SRB8] | 1.81 ± 0.048 | 2.08 ± 0.054 | 2.1 ± 0.073 | 1.92 ± 0.048 |
| SIVNICDIQEEQVDITA [PUP1] | 2.83 ± 0.15 | 2.91 ± 0.16 | 3.31 ± 0.12 | 2.74 ± 0.11 |
| KGTVFQFEIPISDDDDS [POP4] | 3.3 ± 0.17 | 2.47 ± 0.15 | 2.29 ± 0.15 | 3.13 ± 0.042 |
| KFQKLLQNSERDVELSS [SMC4] | 2.82 ± 0.065 | 3.18 ± 0.048 | 2.94 ± 0.041 | 3.05 ± 0.052 |
| LPEIAKEIYTTLGNQML [YJR042W/NUP85] | 2.28 ± 0.086 | 2.42 ± 0.087 | 2.87 ± 0.093 | 2.49 ± 0.069 |
| ISGDISDMQHIERLLKD [PRE4] | 2.99 ± 0.14 | 3.1 ± 0.11 | 3.13 ± 0.14 | 2.99 ± 0.1 |
| KNVENTKNLSILTSKVN [DSN1] | 2.37 ± 0.061 | 2.36 ± 0.049 | 2.53 ± 0.077 | 2.51 ± 0.036 |
| DMNSNLQVLKRERDGIK [SMC1] | 3.01 ± 0.093 | 2.92 ± 0.065 | 3.03 ± 0.047 | 2.78 ± 0.078 |
| NNSSITLRCSVVEACGN [YCS4] | 1.78 ± 0.064 | 1.23 ± 0.056 | 1.13 ± 0.14 | 1.25 ± 0.041 |
| LQGVTYPVLRKLYKKIA [YIL149C/MLP2] | 1.94 ± 0.093 | 1.79 ± 0.056 | 1.55 ± 0.14 | 1.83 ± 0.055 |
| SLADNEIALKGLESLLN [YCS4] | 2.81 ± 0.056 | 2.5 ± 0.067 | 2.68 ± 0.075 | 2.94 ± 0.073 |
| TELASKDNAIYNGFIDI [YCS4] | 1.42 ± 0.072 | 1.68 ± 0.071 | 1.09 ± 0.14 | 1.48 ± 0.05 |
| FQMNCYAKEDAFSYPRM [RPN2] | 2.53 ± 0.12 | 2.52 ± 0.078 | 2.48 ± 0.077 | 2.61 ± 0.047 |
| APSIIFMDEIDSIGSTR [RPT6] | 2.76 ± 0.063 | 2.89 ± 0.088 | 2.83 ± 0.058 | 2.93 ± 0.054 |
| NNRISNANEISANTNNT [SWP82] | 2.14 ± 0.05 | 2.25 ± 0.049 | 2.54 ± 0.066 | 2.66 ± 0.048 |
| WRAHDSSIVAIDWASPE [YGL100W/SEH1] | 2.55 ± 0.092 | 2.8 ± 0.1 | 2.83 ± 0.078 | 2.79 ± 0.068 |
| YHNLTTHNSYEKACQVL [RPN6] | 3.33 ± 0.071 | 3.11 ± 0.058 | 3.1 ± 0.063 | 2.99 ± 0.037 |
| MLHKVLENKADPLVSLM [RPT6] | 2.28 ± 0.08 | 2.15 ± 0.063 | 2.71 ± 0.058 | 2.23 ± 0.066 |
| FIRKYINQKALRKIQAL [GAL11] | 2.38 ± 0.25 | 1.49 ± 0.22 | 1.79 ± 0.23 |  |
| SKKAEKTGTKPAAVFTE [RPL4A] | 2.52 ± 0.068 | 2.79 ± 0.085 | 2.44 ± 0.072 | 2.76 ± 0.061 |
| LSALDHYERTQTKENKR [RPN8] | 2.91 ± 0.077 | 2.82 ± 0.087 | 2.71 ± 0.073 | 2.68 ± 0.057 |
| DLDTVLKKDIESLRGIL [SRP72] | 1.63 ± 0.088 | 1.38 ± 0.096 | 1.37 ± 0.25 | 1.61 ± 0.089 |
| VEEIKLQKEKELHKEGT [SMC2] |  | 3.03 ± 0.12 | 2.81 ± 0.095 | 2.97 ± 0.096 |
